Measured values as given in patent US8722856B2, “Anti-MUC1 antibody” (National University Corporation Hokkaido University, priority 2008, dated 2014).

What was measured:
[1] = target: T1, 2,3-ST(DT*R)-20 (Compound No. 2) (Homo sapiens, UniProt P15941); experiment: Sugar chain specificity, competitive ELISA against Biotin-Tn(DT*R)-100; type: binding; conditions: glycopeptide 2,3-ST (Compound No. 2), reference = 100%
T1 construct: Synthesis of MUC1 Tn20-mer Glycopeptide; made in house; host or cells: chemical solid-phase synthesis, then enzymatic sialylation
T1 sequence (P15941 136-155): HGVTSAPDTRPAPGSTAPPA
Protocol: (§1) Such specificity can be expressed by a difference in cross reactivity. The cross reactivity is obtained by a calculation equation of (IC50 for cancer-associated structure 2,3ST/IC50 for sugar chain structure to be compared)×100(%). As used herein, inclusion of specificity refers to a difference of 2 fold or more.
(§2) Ten days after cell fusion, screening of a specific antibody-producing cell was performed. ELISA was used in screening is as follows. To each well of a 384-well microtiter plate (manufactured by Nunc) 35 μl of a Tris buffer (50 mM Tris-HCl, pH 7.5) containing 0.35 μg of an anti-mouse IgG antibody (manufactured by Shibayagi Co., Ltd.) was added to immobilize the antibody at 4° C. for 16 hours. After these wells were washed with 90 μl of a washing solution (physiological saline containing 0.01% Tween 20) once, 200 μl of BLOCK ACE (manufactured by Dainippon Sumitomo Pharma Co., Ltd.) was added, and this was allowed to stand at room temperature for 2 hours for blocking (an anti-mouse IgG antibody solid-phased plate). After each well was washed with 90 μl of a washing solution once, 10 μl of a hybridoma culture supernatant, 10 μl of a buffer A (50 mM Tris buffer containing 0.5% bovine serum albumin, 0.01% Tween 80, 0.05% Proclin 150, and 0.15 M. NaCl, pH 7.4), and 10 μl of a buffer A containing 0.01 ng of Biotin-2,3-ST(DT*R)-20 (Compound No. 16 of Table 1) and 2 ng of Streptavidin-HRP (manufactured by PIERCE) were added to perform a reaction at 4° C. for 16 hours. Then, after each well was washed with 90 μl of a washing solution three times, 25 μl of TMB+-Substrate-Chromogen (manufactured by DAKO) was added to develop a color at room temperature for 30 minutes, 25 μl of 0.05 M sulfuric acid was added to stop the reaction, and absorbance was measured at 450 nm. […] Using a mouse monoclonal antibody isotyping ELISA kit (manufactured by BD Bioscience), a subclass of the antibody was determined and, as a result, an isotype of 1B2 was IgG2a.
(§3) Fifteen (15) μl of a buffer A containing a MUC1 antibody was added to an anti-mouse IgG antibody solid-phased plate and the reaction was allowed to proceed at room temperature for 3 hours. […] Then, after each well was washed with 90 μl of a washing solution three times, 15 μl of TMB+-Substrate-Chromogen (manufactured by DAKO) was added to develop a color at room temperature for 30 minutes, 15 μl of 0.05 M sulfuric acid was added to stop the reaction, and absorbance at 450 nm was measured.

[2] = target: T2, 2,3-ST(VT*S)-20 (Compound No. 12) (Homo sapiens, UniProt P15941); experiment: as above; type: binding; conditions: glycopeptide 2,3ST(VT*S) (Compound No. 12)
T2 construct: Synthesis of MUC1 Tn20-mer Glycopeptide; made in house; host or cells: chemical solid-phase synthesis with enzymatic sialylation
Protocol: as §1, §2, §3

[3] = target: T3, 2,3ST6G(DT*R)-20 (Compound No. 6) (Homo sapiens, UniProt P15941); experiment: as above; type: binding; conditions: glycopeptide 2,3ST6G (Compound No. 6)
T3 construct: Synthesis of MUC1 Tn20-mer Glycopeptide; made in house; host or cells: chemical solid-phase synthesis (Compound 5), then enzymatic sialylation
Protocol: as §1, §2, §3

[4] = target: T4, 2,3ST6L(DT*R)-20 (Compound No. 7) (Homo sapiens, UniProt P15941); experiment: as above; type: binding; conditions: glycopeptide 2,3ST6L (Compound No. 7)
T4 construct: Synthesis of MUC1 Tn20-mer Glycopeptide; made in house; host or cells: chemical solid-phase synthesis (Compound 5), then enzymatic sugar extension
Protocol: as §1, §2, §3

[5] = target: T5, C6(DT*R)-20 (Compound No. 9) (Homo sapiens, UniProt P15941); experiment: as above; type: binding; conditions: glycopeptide C6 (Compound No. 9)
T5 construct: Synthesis of MUC1 Tn20-mer Glycopeptide; made in house; host or cells: chemical solid-phase synthesis
Protocol: as §1, §2, §3

[6] = target: T6, STn(DT*R)-20 (Compound No. 4) (Homo sapiens, UniProt P15941); experiment: as above; type: binding; conditions: glycopeptide STn (Compound No. 4)
T6 construct: Synthesis of MUC1 Tn20-mer Glycopeptide; made in house; host or cells: chemical solid-phase synthesis
Protocol: as §1, §2, §3

[7] = target: T7, T(DT*R)-20 (Compound No. 1) (Homo sapiens, UniProt P15941); experiment: as above; type: binding; conditions: glycopeptide T (Compound No. 1)
T7 construct: Synthesis of MUC1 Tn20-mer Glycopeptide; made in house; host or cells: chemical solid-phase synthesis
Protocol: as §1, §2, §3

[8] = target: T8, cancer-associated structure and normal tissue-associated structure of MUC1 (Homo sapiens, UniProt P15941); experiment: Sugar chain specificity, overall statements from competitive ELISA; type: binding
T8 construct: Synthesis of MUC1 Tn20-mer Glycopeptide; made in house; host or cells: chemical solid-phase synthesis, partly with enzymatic sugar extension
Protocol: as §1, §2, §3

[9] = system: Biotin-Tn(DT*R)-20, -40, -60, -80, -100 (Compound Nos. 17-21); experiment: Tandem repeat dependency ELISA on Streptavidin solid-phased plate; type: binding
Protocol: To each well of a 384-well microtiter plate (manufactured by Nunc) 35 μl of a Tris buffer (50 mM Tris-HCl, pH 7.5) containing 0.35 μg of Streptavidin (manufactured by PIERCE) was added to perform immobilization at 4° C. for 16 hours. After these wells were washed with 90 μl of a washing solution (physiological saline containing 0.01% Tween 20) once, 200 μl of Block Ace (manufactured by Dainippon Sumitomo Pharma Co., Ltd.) was added, and this was allowed to stand at room temperature for 2 hours, to perform blocking (a Streptavidin solid-phased plate). […] Then, after each well was washed with 90 μl of a washing solution three times, 15 μl of TMB+-Substrate-Chromogen (manufactured by DAKO) was added to develop a color at room temperature for 30 minutes, 15 μl of 0.05 M sulfuric acid was added to stop the reaction, and absorbance at 450 nm was measured. […] Therefore, the antibody of the present invention can be said to have an affinity for Tn-100-mer biotin of lower than 1.0×10^−9 (M), and can be said to have the ability to bind to a Tn20-mer tandem structure fragment. More particularly, it can also be said that the antibody of the present invention has a ratio (A100/A20) of absorbance at 450 nm in the case of use of Tn20-mer biotin (A20) and absorbance at 450 nm in the case of use of Tn100-mer biotin (A100), of 2 or lower.

[10] = system: human breast cancer cell strains (T-47D)
Protocol: Antibody-dependant cytotoxicity was analyzed by a chromium release test. Human peripheral mononuclear cell (PBMC) was separated from peripheral blood of a healthy person using Ficoll-paque PLUS (manufactured by GE Healthcare) according to the package insert. DMEM containing 10% FCS was added to the separated PBMC so that the number became 4×10^6/ml.
50 μl of physiological saline containing 1.85 MBq ^51Cr (manufactured by Perkin Elmer) was added to 200 μl of DMEM containing 1×10^6 human breast cancer cell strains (T-47D) and human mammary gland epithelial cell strains (184A1) and the reaction was allowed to proceed at 37° C. for 1 hour. Thereafter, cells were washed with 10 ml of DMEM three times, and DMEM was added to 5×10^4 cells/ml. […] Thereafter, 100 μl of PBMC was added and the reaction was allowed to proceed at 37° C. for 2 hours. Thereafter, the plate was centrifuged at 500×g for 5 minutes at room temperature and γ-ray of 100 μl of the supernatant was measured with ARC-7001 (manufactured by Aloka). Antibody-specific cytotoxicity (%) was obtained using the following calculation equation. Cytotoxicity(%)=(experimental value−natural release)/(maximum release−natural release)×100

B1: 1B2: mouse monoclonal anti-MUC1 antibody, isotype IgG2a, clone from immunization with 2,3-ST(DT*R)-20 conjugated to BSA (antibody, V domains shown)
VH: MEWIWIFLFILSGTAGVQSQVQLQQSGAELARPGASVKLSCKASGYTFTNYGLSWVKQRTGQGLEWIGENHPGSGIIYHNEKFRGKATLTADKSSSTAYVQLSSLTSEDSAVYFCARSSGTRGFAYWGQGTLVTVSA
VL: MKLPVRLLVLMFWIPASSSDVLMTQTPLSLPVSLGDQASISCRSSQSIVHSNGNTYLEWYLQKPGQSPKLLIYKVSNRFSGVPDRFSGSGSGTDFTLKISRVEAEDLGVYYCFQGSHGPWTFGGGTKLEIKRA
modifications: Antibody 1B2 VH sequence; Antibody 1B2 VL sequence
[1]
  Cross reactivity letting 2,3-ST to be 100%: 100%
[2]
  Cross reactivity letting 2,3-ST to be 100%: <0.030%
[3]
  Cross reactivity letting 2,3-ST to be 100%: 0.061%
[4]
  Cross reactivity letting 2,3-ST to be 100%: 0.063%
[5]
  Cross reactivity letting 2,3-ST to be 100%: 0.75%
[6]
  Cross reactivity letting 2,3-ST to be 100%: 0.36%
[7]
  Cross reactivity letting 2,3-ST to be 100%: 96%
[8]
  IC50 for a cancer-associated structure: ≤ 100 nM
  cross reactivity for the normal tissue-associated structure, letting 2,3ST to be 100%: ≤ 1%
  specificity for a cancer-associated structure as compared with that for a normal tissue-associated structure: at least 100 fold
[8]; 2,3ST6L(DT*R)-20, 2,3-ST6SL(DT*R)-20
  cross reactivity with a sugar chain structure highly expressed in normal cells: low cross reactivity
[8]; T(DT*R)-20, 2,3-ST(DT*R)-20, Tn(DT*R)-20
  affinity for a sugar chain structure highly expressed in cancer cells: high affinity
[9]; Biotin-Tn(DT*R)-40, -60, -80, -100
  reactivity by peptide chain length: approximately the same reactivity
[9]; absorbance at 450 nm, 20-mer to 100-mer
  dependency on the length of the tandem repeat: low dependency on a length of the tandem repeat
[10]
  Antibody-specific cytotoxicity: about 15%
